Experimental data reported in PMC6882858, “Seryl tRNA synthetase cooperates with POT1 to regulate telomere length and cellular senescence” (Signal Transduction and Targeted Therapy, 2019).

B1: recombinant POT1 with a His6 tag at its C-terminal end (natural protein, human, UniProt Q9NUX5 1-634, looked up)
chain: MSLVPATNYIYTPLNQLKGGTIVNVYGVVKFFKPPYLSKGTDYCSVVTIVDQTNVKLTCLLFSGNYEALPIIYKNGDIVRFHRLKIQVYKKETQGITSSGFASLTFEGTLGAPIIPRTSSKYFNFTTEDHKMVEALRVWASTHMSPSWTLLKLCDVQPMQYFDLTCQLLGKAEVDGASFLLKVWDGTRTPFPSWRVLIQDLVLEGDLSHIHRLQNLTIDILVYDNHVHVARSLKVGSFLRIYSLHTKLQSMNSENQTMLSLEFHLHGGTSYGRGIRVLPESNSDVDQLKKDLESANLTANQHSDVICQSEPDDSFPSSGSVSLYEVERCQQLSATILTDHQYLERTPLCAILKQKAPQQYRIRAKLRSYKPRRLFQSVKLHCPKCHLLQEVPHEGDLDIIFQDGATKTPDVKLQNTSLYDSKIWTTKNQKGRKVAVHFVKNNGILPLSNECLLLIEGGTLSEICKLSNKFNSVIPVRSGHEDLELLDLSAPFLIQGTIHHYGCKQCSSLRSIQNLNSLVDKTSWIPSSVAEALGIVPLQYVFVMTFTLDDGTGVLEAYLMDSDKFFQIPASEVLMDDDLQKSVDMIMDMFCPPGIKIDAYPWLECFIKSYNVTNGTDNQICYQIFDTTVAEDVI
notes: also called His6-tagged POT1; pET-20b-POT1; not shown: His6, C-terminal, kept
B2: GST-fused full-length POT1 (natural protein, human, UniProt Q9NUX5 1-634, looked up)
chain: B1 chain
notes: Held on beads in the GST pull-down; also called GST-POT1 FL; pGEX6P-1-POT1; not shown: GST, N-terminal, kept

How the values were obtained:
[1] = biological target: T1, GST-fused full length SerRS (human, UniProt P49591 1-514); experiment: pull-down; GST-fusion proteins bound to beads incubated with 0.5 uM purified recombinant His6-tagged protein in 500 ul GST pulldown buffer (150 mM NaCl, 20 mM HEPES pH 7.9, 0.5 mM EDTA, 0.1% Triton X-100, 10% glycerol, 1 mM DTT) overnight at 4 °C; washed 5 times; western blot with anti-His or anti-GST; conditions: both partners purified
T1 construct: also called GST-SerRS FL; pGEX6P-1-SerRS
T1 sequence (P49591 whole entry, the tested form may be a part): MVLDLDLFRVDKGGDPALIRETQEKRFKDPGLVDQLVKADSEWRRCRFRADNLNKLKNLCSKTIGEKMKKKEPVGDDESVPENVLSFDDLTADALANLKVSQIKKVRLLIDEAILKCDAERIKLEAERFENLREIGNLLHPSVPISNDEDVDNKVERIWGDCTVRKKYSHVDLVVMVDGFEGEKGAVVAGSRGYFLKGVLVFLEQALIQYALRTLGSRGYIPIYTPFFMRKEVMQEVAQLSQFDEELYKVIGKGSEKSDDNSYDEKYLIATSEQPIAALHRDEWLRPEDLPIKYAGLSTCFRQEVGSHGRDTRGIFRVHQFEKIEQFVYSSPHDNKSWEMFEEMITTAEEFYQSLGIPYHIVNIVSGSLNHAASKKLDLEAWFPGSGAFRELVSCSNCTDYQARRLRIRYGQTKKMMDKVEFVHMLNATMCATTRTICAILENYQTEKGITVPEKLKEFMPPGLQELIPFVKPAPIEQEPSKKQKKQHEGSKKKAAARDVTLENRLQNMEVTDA

[2] = biological target: T2, purified His6-tagged SerRS (human, UniProt P49591 1-514); experiment: as above; conditions: both partners purified
T2 construct: also called recombinant SerRS; PET-20b-SerRS
T2 sequence (P49591 whole entry): as the sequence (P49591 whole entry, the tested form may be a part) above

| Binder | binding result [1] | binding result [2] |
| --- | --- | --- |
| B1 | binds | – |
| B2 | – | binds |
